Consider three molecules from patent US11548942B2, “Methods of treating a wasting syndrome, increasing growth hormone levels, and increasing GHSR activity with a LEAP2 antibody” (NGM Biopharmaceuticals, Inc., priority 2017, dated 2023).

One assay concerns food intake. Description: Food intake in mice. It counts as in vivo. The procedure: Mice were housed in individual cages and food intake was measured at 0.5, 1, and 2 hours.
Mice were subcutaneously injected with 0.15 μmol/kg or 3 μmol/kg LEAP2.

Assay [1] can be described thus: Growth hormone infusion during chronic calorie restriction in LEAP2-expressing mice. The settings on record: growth hormone pumps 0.5 μg/hr s.c. Format: in vivo. On the procedure:
As described above, two weeks before initiation of calorie restriction, 2-3 month-old male mice were administered AAV-LEAP2 or AAV-GFP by tail vein injection. Diet treatment groups and measurements were the same as above. For growth hormone infusion, Alzet® osmotic mini-pumps filled with recombinant rat growth hormone (GroPep Bioreagents) or vehicle were implanted subcutaneously in the interscapular region. Growth hormone concentration in the pumps was 2 mg/ml and the growth hormone was delivered at a rate of 0.25 μl/hr (0.5 μg/hr).
FIG. 8A illustrates the experimental design for growth hormone infusion during chronic calorie restriction. The delivery efficiency of growth hormone was confirmed in a separate group of naïve mice kept in ad libitum conditions over 2 weeks. […] Osmotic pumps were implanted 3 days before initiation of calorie restriction. […] In LEAP2-expressing mice implanted with growth hormone pumps, 60% were able to maintain stable levels of blood glucose and survived to the end of the experiment. […] FIG. 8C presents a Kaplan-Meier survival curve of the mice from this experiment.

Another assay has as its target T1, endogenous LEAP2 (Mus musculus, UniProt Q91V13).
T1 construct: The mature form of LEAP2 found in circulation is a 40 amino acid cationic bicyclic peptide; from tissue; host or cells: live fasted mice; circulating endogenous LEAP2
T1 sequence (Q91V13 37-76): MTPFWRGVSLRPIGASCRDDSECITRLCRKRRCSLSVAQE
Description: Growth hormone release after fasting and anti-LEAP2 antibody treatment. It counts as in vivo, mice. To be noted: 10 mg/kg i.p. after 24 hour fasting. The procedure:
FIG. 10C illustrates the experimental design for evaluating the impact of anti-LEAP2 antibodies on growth hormone release. Following a 24 hour fasting period, a baseline blood sample was taken, and anti-LEAP2 antibodies (10 mg/kg) were administered by intraperitoneal injection. Growth hormone levels were determined at 5, 10, 30, 60, 90, and 120 minutes post-injection.

Consider `CCCCCCCC(=O)OC[C@H](NC(=O)[C@H](CO)NC(=O)CN)C(=O)N[C@@H](Cc1ccccc1)C(=O)N[C@@H](CC(C)C)C(=O)N[C@@H](CO)C(=O)N1CCC[C@H]1C(=O)N[C@@H](CCC(=O)O)C(=O)N[C@@H](Cc1c[nH]cn1)C(=O)N[C@@H](CCC(N)=O)C(=O)N[C@@H](CCCNC(=N)N)C(=O)N[C@H](C(=O)N[C@@H](CCC(N)=O)C(=O)N[C@@H](CCC(N)=O)C(=O)N[C@@H](CCCNC(=N)N)C(=O)N[C@@H](CCCCN)C(=O)N[C@@H](CCC(=O)O)C(=O)N[C@@H](CO)C(=O)N[C@@H](CCCCN)C(=O)N[C@@H](CCCCN)C(=O)N1CCC[C@H]1C(=O)N1CCC[C@H]1C(=O)N[C@@H](C)C(=O)N[C@@H](CCCCN)C(=O)N[C@@H](CC(C)C)C(=O)N[C@@H](CCC(N)=O)C(=O)N1CCC[C@H]1C(=O)N[C@@H](CCCNC(=N)N)C(=O)O)C(C)C` [ghrelin], for which the food intake result in the assay on food intake (ghrelin 0.03 μmol/kg s.c.) was “only slightly increased”; in the assay with food intake (ghrelin 0.15 μmol/kg s.c., 1 and 2 hour time points), “significantly promote food intake”.

B1: growth hormone: recombinant rat growth hormone (GroPep Bioreagents) delivered by Alzet osmotic mini-pumps (protein, UniProt P01244 27-216, looked up)
Somatotropin: FPAMPLSSLFANAVLRAQHLHQLAADTYKEFERAYIPEGQRYSIQNAQAAFCFSETIPAPTGKEEAQQRTDMELLRFSLLLIQSWLGPVQFLSRIFTNSLMFGTSDRVYEKLKDLEEGIQALMQELEDGSPRIGQILKQTYDKFDANMRSDDALLKNYGLLSCFKKDLHKAETYLRVMKCRRFAESSCAF
B1: the “LEAP2-expressing mice able to maintain stable blood glucose and surviving to the end of the experiment” value in assay [1] turned out to be 60%.

B2: M18: mouse hybridoma anti-LEAP2 monoclonal antibody, VH SEQ ID NO:9, VL SEQ ID NO:10 (antibody, V domains shown)
VH: EIQLQQSGPELMKPGASVKISCKASGYSFTNYYIHWVKQSHGKSLEWIGYIDPFNGGTNYNQKFKGKATLTVDKSSSTAYMHLSSLTFEDSAVYYCARRGYYYGFTYWGQGTLVTVSA
VL: DIVLTQSPASLAVSLGQRATISCKASQSVDYDGDSYMNWYQQKPGQPPKLLIYTASNLESGIPARFSGSGSGTDFTLNIHPVEEEDAATYYCQQSNEDPYTFGGGTKLEIK
Consider B2, for which, in the assay with endogenous LEAP2, the “total amount of growth hormone released (AUC)” value is reported as “increased the total amount of growth hormone released”. The “peak of growth hormone secretion” value with endogenous LEAP2 (versus control antibody) was “increased the peak of growth hormone secretion”.
